Measurements as given in PMC9482650, “Quantitative fragmentomics allow affinity mapping of interactomes” (Nature Communications, 2022).

Experiments:
Assay in all cases: holdup assay
Set-up in all cases: key: below the threshold = too weak to quantify, mostly under pKd 3.1 to 4
[1] = target: MAGI3_2, Q5TCQ9
[2] = target: T1, MPP6, Q9NZW5
T1 sequence (Q9NZW5 125-219, limits assumed, looked up): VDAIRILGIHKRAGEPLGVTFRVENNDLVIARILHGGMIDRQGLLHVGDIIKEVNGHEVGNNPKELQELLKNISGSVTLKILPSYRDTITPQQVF

[3] = target: T2, ARHGEF11, O15085
T2 sequence (O15085 42-136, limits assumed, looked up): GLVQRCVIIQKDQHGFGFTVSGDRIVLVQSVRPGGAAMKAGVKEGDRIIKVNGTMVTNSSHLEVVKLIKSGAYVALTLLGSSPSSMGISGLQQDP

[4] = target: DLG1_3, Q12959
[5] = target: AHNAK1, Q09666
[6] = target: PDLIM1, O00151
PDLIM1, O00151, sequence (O00151 1-87): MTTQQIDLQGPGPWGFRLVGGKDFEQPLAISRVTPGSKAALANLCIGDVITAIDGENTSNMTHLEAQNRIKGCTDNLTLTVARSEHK

[7] = target: T3, LIN7A, O14910
T3 sequence (O14910 103-200, limits assumed, looked up): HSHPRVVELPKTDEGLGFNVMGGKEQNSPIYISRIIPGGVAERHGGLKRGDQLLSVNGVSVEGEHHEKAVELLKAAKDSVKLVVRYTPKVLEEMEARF

[8] = target: MAGI2_2, Q86UL8
MAGI2_2, Q86UL8, sequence (Q86UL8 410-522): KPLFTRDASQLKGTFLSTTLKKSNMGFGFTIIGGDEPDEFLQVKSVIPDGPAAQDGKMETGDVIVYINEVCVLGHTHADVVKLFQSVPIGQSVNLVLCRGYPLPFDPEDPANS

[9] = target: FRMPD3, Q5JV73
FRMPD3, Q5JV73, sequence (Q5JV73 12-100): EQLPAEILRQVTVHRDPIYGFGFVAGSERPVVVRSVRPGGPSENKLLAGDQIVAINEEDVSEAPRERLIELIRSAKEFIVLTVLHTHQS

[10] = target: T4, DLG3_2, Q92796
T4 sequence (Q92796 221-321, limits assumed, looked up): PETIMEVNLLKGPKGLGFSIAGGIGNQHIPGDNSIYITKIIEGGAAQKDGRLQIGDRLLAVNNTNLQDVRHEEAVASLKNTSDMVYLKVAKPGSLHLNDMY

[11] = target: LDB3, O75112
LDB3, O75112, sequence (O75112 1-94): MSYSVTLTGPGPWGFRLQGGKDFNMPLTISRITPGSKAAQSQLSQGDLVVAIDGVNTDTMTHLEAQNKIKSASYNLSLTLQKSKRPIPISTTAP

[12] = target: T5, SIPA1L2, Q9P2F8
T5 sequence (Q9P2F8 945-1036, limits assumed, looked up): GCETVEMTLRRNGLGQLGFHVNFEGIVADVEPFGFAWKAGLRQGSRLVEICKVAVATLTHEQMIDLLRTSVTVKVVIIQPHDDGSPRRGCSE

[13] = target: DLG4_3, P78352
DLG4_3, P78352, sequence (P78352 306-403): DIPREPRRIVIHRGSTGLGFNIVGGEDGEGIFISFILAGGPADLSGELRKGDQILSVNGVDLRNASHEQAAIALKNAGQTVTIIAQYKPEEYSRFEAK

[14] = target: T6, GRIP1_5, Q9Y3R0
T6 sequence (Q9Y3R0 568-668, limits assumed, looked up): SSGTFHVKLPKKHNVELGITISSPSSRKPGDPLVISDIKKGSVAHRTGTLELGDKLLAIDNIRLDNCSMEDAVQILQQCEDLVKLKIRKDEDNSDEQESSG

[15] = target: DLG1_1, Q12959
[16] = target: GRASP, Q7Z6J2
GRASP, Q7Z6J2, sequence (Q7Z6J2 96-193): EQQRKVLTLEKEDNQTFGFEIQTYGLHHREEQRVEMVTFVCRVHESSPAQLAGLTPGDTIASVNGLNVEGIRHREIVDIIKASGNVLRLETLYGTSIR

[17] = target: T7, SHANK1, Q9Y566
T7 sequence (Q9Y566 658-767, limits assumed, looked up): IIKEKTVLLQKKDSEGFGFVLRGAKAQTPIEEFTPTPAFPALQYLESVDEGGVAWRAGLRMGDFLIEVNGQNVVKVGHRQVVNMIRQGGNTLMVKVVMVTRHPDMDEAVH

[18] = target: IL16_1, Q14005
IL16_1, Q14005, sequence (Q14005 210-306): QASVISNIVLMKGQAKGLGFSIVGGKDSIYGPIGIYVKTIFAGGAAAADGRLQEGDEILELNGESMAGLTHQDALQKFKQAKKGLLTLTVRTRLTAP

[19] = target: GOPC, Q9HD26; conditions: plain residues with an end cap or a label only (N-terminal biotin on a linker: ado-ado)
[20] = target: MAGI1_2, Q96QZ7
MAGI1_2, Q96QZ7, sequence (Q96QZ7 456-580): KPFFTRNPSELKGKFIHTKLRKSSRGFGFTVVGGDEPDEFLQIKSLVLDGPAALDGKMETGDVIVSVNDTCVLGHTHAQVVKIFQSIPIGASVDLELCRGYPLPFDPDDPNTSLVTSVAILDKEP

[21] = target: DLG4_2, P78352
DLG4_2, P78352, sequence (P78352 155-259): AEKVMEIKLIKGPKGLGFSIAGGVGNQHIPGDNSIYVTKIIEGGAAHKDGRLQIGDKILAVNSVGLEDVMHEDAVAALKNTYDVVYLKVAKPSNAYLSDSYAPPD

[22] = target: T8, DLG3_1, Q92796
T8 sequence (Q92796 125-227, limits assumed, looked up): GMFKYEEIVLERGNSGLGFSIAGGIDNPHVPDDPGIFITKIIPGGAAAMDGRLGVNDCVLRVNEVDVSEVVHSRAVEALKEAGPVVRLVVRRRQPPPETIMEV

[23] = target: GORASP2, Q9H8Y8
[24] = target: TJP2_1, Q9UDY2
TJP2_1, Q9UDY2, sequence (Q9UDY2 24-128): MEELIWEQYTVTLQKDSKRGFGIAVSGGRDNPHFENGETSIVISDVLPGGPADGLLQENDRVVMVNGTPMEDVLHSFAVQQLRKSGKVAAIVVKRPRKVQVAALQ

[25] = target: SCRIB_3, Q14160
SCRIB_3, Q14160, sequence (Q14160 999-1103): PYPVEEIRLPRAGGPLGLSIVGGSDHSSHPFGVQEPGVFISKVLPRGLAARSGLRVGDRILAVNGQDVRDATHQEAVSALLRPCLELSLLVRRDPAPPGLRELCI

[26] = target: T9, RADIL, Q96JH8
T9 sequence (Q96JH8 971-1071, limits assumed, looked up): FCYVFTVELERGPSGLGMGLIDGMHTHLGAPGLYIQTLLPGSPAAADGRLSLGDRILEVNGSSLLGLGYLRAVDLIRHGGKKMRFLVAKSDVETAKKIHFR

[27] = target: SCRIB_2, Q14160
SCRIB_2, Q14160, sequence (Q14160 857-960): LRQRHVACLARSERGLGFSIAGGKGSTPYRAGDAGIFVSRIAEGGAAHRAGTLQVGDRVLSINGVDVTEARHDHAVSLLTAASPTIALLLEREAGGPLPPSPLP

[28] = target: TJP1_2, Q07157
TJP1_2, Q07157, sequence (Q07157 181-274): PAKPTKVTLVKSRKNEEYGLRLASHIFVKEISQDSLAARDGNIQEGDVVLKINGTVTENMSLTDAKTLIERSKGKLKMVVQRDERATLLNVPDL

[29] = plain residues with an end cap or a label only (N-terminal biotin on a linker: ado-ado)
[30] = modified: phospho on T at position -2 from the C-terminal residue

MAGI3_2, Q5TCQ9, sequence (Q5TCQ9 398-503): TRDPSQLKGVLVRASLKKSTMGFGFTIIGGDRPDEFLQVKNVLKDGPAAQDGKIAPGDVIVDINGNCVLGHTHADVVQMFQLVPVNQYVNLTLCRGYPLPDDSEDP

## VYPNAKVELV [PDLIM4_iso2, P50479;P50479-1]
[1]; [29]
  pKd: below the threshold
[2]; [29]
  pKd: below the threshold
[3]; [29]
  pKd: below the threshold
[4]; [29]
  pKd: below the threshold
[5]; [29]
  pKd: below the threshold
[6]; [29]
  pKd: below the threshold
[7]; [29]
  pKd: below the threshold
[8]; [29]
  pKd: below the threshold
[9]; [29]
  pKd: below the threshold
[10]; [29]
  pKd: below the threshold
[11]; [29]
  pKd: below the threshold
[12]; [29]
  pKd: below the threshold
[13]; [29]
  pKd: below the threshold
[14]; [29]
  pKd: below the threshold
[15]; [29]
  pKd: below the threshold
[16]; [29]
  pKd: below the threshold
[17]; [29]
  pKd: below the threshold
[18]; [29]
  pKd: below the threshold
[19]
  pKd: below the threshold
[20]; [29]
  pKd: below the threshold
[21]; [29]
  pKd: below the threshold
[22]; [29]
  pKd: below the threshold
[23]; [29]
  pKd: 4.87
[24]; [29]
  pKd: below the threshold
[25]; [29]
  pKd: below the threshold
[26]; [29]
  pKd: 5.24
[27]; [29]
  pKd: below the threshold

## RLQRRRETQV [HPV18-E6_-2P, P06463]
[1]; [30]
  pKd: below the threshold
[2]; [30]
  pKd: 3.57
[3]; [30]
  pKd: below the threshold
[4]; [30]
  pKd: below the threshold
[5]; [30]
  pKd: below the threshold
[6]; [30]
  pKd: below the threshold
[7]; [30]
  pKd: below the threshold
[8]; [30]
  pKd: below the threshold
[9]; [30]
  pKd: below the threshold
[28]; [30]
  pKd: below the threshold
[10]; [30]
  pKd: below the threshold
[11]; [30]
  pKd: below the threshold
[12]; [30]
  pKd: below the threshold
[13]; [30]
  pKd: 3.51
[14]; [30]
  pKd: below the threshold
[15]; [30]
  pKd: below the threshold
[16]; [30]
  pKd: below the threshold
[17]; [30]
  pKd: below the threshold
[18]; [30]
  pKd: below the threshold
[20]; [30]
  pKd: below the threshold
[21]; [30]
  pKd: 3.65
[22]; [30]
  pKd: below the threshold
[23]; [30]
  pKd: 4.13
[24]; [30]
  pKd: below the threshold
[25]; [30]
  pKd: below the threshold
[26]; [30]
  pKd: below the threshold
[27]; [30]
  pKd: below the threshold

## YLEPVLSSEL [ATP2A2, P16615;P16615-3]
[1]; [29]
  pKd: below the threshold
[2]; [29]
  pKd: below the threshold
[3]; [29]
  pKd: 4.55
[4]; [29]
  pKd: below the threshold
[5]; [29]
  pKd: below the threshold
[7]; [29]
  pKd: below the threshold
[8]; [29]
  pKd: below the threshold
[9]; [29]
  pKd: below the threshold
[28]; [29]
  pKd: below the threshold
[10]; [29]
  pKd: 4.18
[11]; [29]
  pKd: below the threshold
[12]; [29]
  pKd: below the threshold
[13]; [29]
  pKd: below the threshold
[14]; [29]
  pKd: below the threshold
[15]; [29]
  pKd: below the threshold
[16]; [29]
  pKd: 4.82
[17]; [29]
  pKd: 4.67
[18]; [29]
  pKd: below the threshold
[19]
  pKd: below the threshold
[20]; [29]
  pKd: below the threshold
[21]; [29]
  pKd: below the threshold
[22]; [29]
  pKd: below the threshold
[23]; [29]
  pKd: below the threshold
[24]; [29]
  pKd: below the threshold
[25]; [29]
  pKd: 4.51
[26]; [29]
  pKd: below the threshold

## KSGKQTMLVV [TRIM29, Q14134;Q14134-2]
[2]; [29]
  pKd: below the threshold
[5]; [29]
  pKd: below the threshold
[6]; [29]
  pKd: below the threshold
[7]; [29]
  pKd: below the threshold
[9]; [29]
  pKd: below the threshold
[10]; [29]
  pKd: below the threshold
[11]; [29]
  pKd: below the threshold
[12]; [29]
  pKd: below the threshold
[13]; [29]
  pKd: below the threshold
[14]; [29]
  pKd: below the threshold
[15]; [29]
  pKd: below the threshold
[16]; [29]
  pKd: below the threshold
[18]; [29]
  pKd: below the threshold
[19]
  pKd: below the threshold
[20]; [29]
  pKd: below the threshold
[23]; [29]
  pKd: 4.6
[24]; [29]
  pKd: below the threshold
[25]; [29]
  pKd: below the threshold
[26]; [29]
  pKd: 4.46
[27]; [29]
  pKd: below the threshold

## LPAHHNATRL [SLC34A1, Q06495;Q06495-1]
[2]; [29]
  pKd: below the threshold
[3]; [29]
  pKd: 4.11
[4]; [29]
  pKd: below the threshold
[5]; [29]
  pKd: below the threshold
[6]; [29]
  pKd: below the threshold
[7]; [29]
  pKd: below the threshold
[9]; [29]
  pKd: below the threshold
[28]; [29]
  pKd: below the threshold
[10]; [29]
  pKd: below the threshold
[11]; [29]
  pKd: below the threshold
[12]; [29]
  pKd: below the threshold
[13]; [29]
  pKd: below the threshold
[14]; [29]
  pKd: below the threshold
[15]; [29]
  pKd: below the threshold
[16]; [29]
  pKd: 4.26
[17]; [29]
  pKd: 5.39
[18]; [29]
  pKd: below the threshold
[19]
  pKd: 4.53
[21]; [29]
  pKd: below the threshold
[22]; [29]
  pKd: below the threshold
[23]; [29]
  pKd: below the threshold
[25]; [29]
  pKd: 4.02
[26]; [29]
  pKd: below the threshold
[27]; [29]
  pKd: below the threshold
